Blank lines part the entries; values can stand above or below the substance they belong to.
Legend:
arrestin3 [1] = test: single-cell FRET, PTH1R–eYFP / arrestin3–CFP
arrestin3 [2] = test: BRET, arrestin3–Rluc / PTH1R–eYFP; settings: reference: wild type
arrestin3 [3] = test: dual-color FRAP of arrestin3–CFP; settings: reference: wild type
[4] = biological target: PTH1R PD3 mutant (mutations of clusters 1 and 2 combined), HA- and eYFP-tagged (human) (UniProt Q03431)
[5] = biological target: parathyroid hormone receptor 1 (PTH1R) wild type, N-terminally HA-tagged, C-terminally eYFP-labelled (human) (UniProt Q03431)
[6] = sites S489,S491,S492,S493,S495,S501,T503,S504,T506

other: increase in FRET (arrestin3 [1]; reference: before agonist): 24.8%
Substance: PTH1R (parathyroid hormone receptor 1) (from UniProt Q03431) 100 nM PTH(1–34)

percent of reference (% of WT maximum BRET) (arrestin3 [2]; sites S489,S491,S492,S493,S495): 80.8
other: reduction of FRET signal vs WT (arrestin3 [1]; reference: wild type, sites S489,S491,S492,S493,S495): 42.1%
Substance: PTH1R (parathyroid hormone receptor 1) (from UniProt Q03431) PD1 (cluster 1 S/T to Ala)
other: arrestin3 recovery after photobleaching (arrestin3 [3]; sites S489,S491,S492,S493,S495): same; reference 19.07 ± 0.68–23.94 ± 0.86

percent of reference (% of WT maximum BRET) (arrestin3 [2]; sites S501,T503,S504,T506): 66.9
Substance: PTH1R (parathyroid hormone receptor 1) (from UniProt Q03431) PD2 (cluster 2 S/T to Ala)
other: arrestin3 recovery after photobleaching (arrestin3 [3]; sites S501,T503,S504,T506): weaker; reference 19.07 ± 0.68–23.94 ± 0.86

percent of reference (% of WT maximum BRET) (arrestin3 [2]; [6]): 46.6
Substance: PTH1R (parathyroid hormone receptor 1) (from UniProt Q03431) PD3 (clusters 1 and 2 S/T to Ala)
other: arrestin3 recovery after photobleaching (arrestin3 [3]; [6]): weaker; reference 19.07 ± 0.68–23.94 ± 0.86

other: agonist-induced FRET change (arrestin3 [1]; reference: wild type, sites T503,S504): weaker; reference 24.8 ± 12.7
Substance: PTH1R (parathyroid hormone receptor 1) (from UniProt Q03431) T503A, S504A
other: arrestin3 recovery after photobleaching (arrestin3 [3]; sites T503,S504): weaker; reference 19.07 ± 0.68–23.94 ± 0.86

pEC50 of PTH(1–34) for cAMP accumulation (HTRF) in HEK293 cells transfected with HA–PTH1R PD3 (without YFP), 15 min, 100 µM IBMX [4]: 11.3
pEC50 of PTH(1–34) for cAMP accumulation (HTRF) in HEK293 cells transfected with HA–PTH1R WT (without YFP), 15 min, 100 µM IBMX [5]: 10.9
Substance: PTH(1–34) (peptide)
